# Results as given in the supplement of paper PMC10724198.
# ± gives the standard deviation of the averaged measurements.
# Tested on: Saccharomyces cerevisiae
# Test: protein stability index of tFT-peptide fusion (C-terminal peptide) (PSI (0-1 scale)); higher = more stable (slower turnover)
# Settings: genetic background: cdc53-1; temperature: 37 C
# Experimental: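 MPS profiling in S. cerevisiae of the tFT-X12 degron library: putative degron peptides plus stable controls, 12 aa, fused to the C-terminus of a sfGFP-mCherry timer. Cells are FACS-sorted into 8 mCherry/sfGFP bins and deep-sequenced. PSI runs from 0 (unstable) to 1 (stable). Backgrounds are wild type, das1Δ and doa10Δ at 30 °C, and wild type, das1Δ, cdc34-1 and cdc53-1 at 37 °C; 2-3 technical replicates each.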
# 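Also: PSI is a weighted mean of sequencing reads over stability bins, variants kept only with over 10 reads, mCherry proximal and sfGFP distal, peptide attached via GGGS linker.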
row,Sequence,protein stability index
1,ACSRKPIWVTWL,0.747 ± 0.0079
2,AFLLVLFCCVSC,0.258 ± 0.0057
3,AFLWSLFVFFRF,0.183 ± 0.0084
4,AFVVPLFLCCCG,0.165 ± 0.013
5,AFYLCLYFMPVS,0.548 ± 0.036
6,AGAFRIVWWALR,0.6935 ± 0.00096
7,ALFLLWVVMHDV,0.337 ± 0.021
8,ALLWEFVPCSVR,0.52 ± 0.0073
9,ALRGLWFPFSCL,0.765 ± 0.0018
10,ALRLPPPPFSLY,0.757 ± 0.025
11,ALSGLARFIVCH,0.358 ± 0.019
12,ALVGEVLWFQLV,0.7569 ± 0.006
13,APLLPPALALTC,0.516 ± 0.038
14,APPSFPPLLLLS,0.697 ± 0.038
15,AQCRGGGLSGVG,0.6409 ± 0.0041
16,ARGVAAAFVSGF,0.7725 ± 0.0057
17,ARRGHNCAAVFL,0.7426 ± 0.0071
18,ARTWVVLLICGH,0.479 ± 0.025
19,ASWRYMFPVTLG,0.574 ± 0.045
20,AVCVVVMAVFVG,0.4098 ± 0.0026
21,CASVCCFFAWIV,0.623 ± 0.011
22,CCVFFLLCLSLF,0.44 ± 0.024
23,CFFGFRAGLFLG,0.7205 ± 0.0047
24,CFFVSLFFYIDC,0.296 ± 0.0032

row,Sequence,protein stability index
1,CFGSALLKCWLC,0.726 ± 0.018
2,CFLSWSLRFFIL,0.507 ± 0.022
3,CFVRCFVSIRLF,0.167 ± 0.0043
4,CGGLFDVALGVG,0.5096 ± 0.0026
5,CGGVQVWRVKVV,0.715 ± 0.012
6,CGSFWVNVLCAV,0.422 ± 0.018
7,CILYLSWIIFRA,0.192 ± 0.011
8,CLCLICFLCWFA,0.546 ± 0.012
9,CLLDVVMVVERG,0.432 ± 0.0095
10,CPMFVKFFFCLY,0.462 ± 0.011
11,CRGLSWRMITCL,0.59 ± 0.049
12,CRLRYSILWFRL,0.09746 ± 0.00035
13,CRRQLKVLKSMS,0.697 ± 0.025
14,CSFHFSLFFLRV,0.426 ± 0.048
15,CSRVVGLFFLVV,0.62 ± 0.019
16,CVCLWCFLVWAR,0.391 ± 0.029
17,CVCPFCVWVSCL,0.744 ± 0.054
18,CVSFFRCLFLIV,0.231 ± 0.019
19,CWYVCSFWPYVV,0.6476 ± 0.0021
20,DAGSSYRFFRFI,0.755 ± 0.011
21,DFFTSFSLFFFL,0.7814 ± 0.0048
22,DLIGSVRRLFCV,0.725 ± 0.013
23,DLLKAILKIKSL,0.704 ± 0.05
24,DLQTVGLTRFIV,0.7362 ± 0.0061

row,Sequence,protein stability index
1,DLRRYRTLIPCK,0.425 ± 0.023
2,DPKQVRIQSSWL,0.721 ± 0.046
3,DVLLVVVLGRFL,0.563 ± 0.063
4,DVPLFLPLPVSV,0.357 ± 0.01
5,ELDVRPMVFLVA,0.4521 ± 0.0023
6,ESRDRRVGIANW,0.743 ± 0.005
7,FACLTPFCLCLT,0.564 ± 0.015
8,FALFCFVIFMSR,0.373 ± 0.1
9,FAVTRVHLACWG,0.464 ± 0.0047
10,GFLGMFFFWFAL,0.648 ± 0.05
11,GGGGMGRRVGVG,0.4177 ± 0.0019
12,LCLPLYIRILSF,0.052 ± 0.0091
13,LPPTPPLSPPPH,0.688 ± 0.0077
14,LSPRPPAPYYSP,0.733 ± 0.0089
15,PSPHRAPPGGHP,0.699 ± 0.026
16,RKKIRTYINENV,0.699 ± 0.038
17,RPPPTPRSVLLN,0.7154 ± 0.0015
18,SVPCWVFLFCLA,0.416 ± 0.028
19,TWGGGRVSLGGG,0.4048 ± 0.0019
20,VCNSIPLTPPPA,0.7272 ± 0.0045
21,VSGITLPFLMFH,0.242 ± 0.034
22,VSGSFRVCFRVW,0.629 ± 0.0076
23,VWWWGGVGWLMV,0.601 ± 0.026
24,YVLLDFFFFFLV,0.329 ± 0.029

# Same assay, conditions: genetic background: das1 deletion; temperature: 30 C
row,Sequence,protein stability index
1,AAVQVCVLLLLL,0.341 ± 0.037
